According to patent US7799901B2, “Modulators of the function of FAS receptors and other proteins” (Yeda Research and Development Co. Ltd., priority 1995, dated 2010):

Columns and labels:
MACHα1 (C360S) = target: T1, MACHα1 (C360S) (Homo sapiens, UniProt Q14790, C360S); assay: Two-hybrid β-galactosidase filter assay (FIG. 5), binding to MACHα1 (C360S); conditions: two hybrid test
T1 construct: expressed in transfected cells; host or cells: SFY526 yeast
Experimental: In FIG. 5, there is shown the results of the interaction of MORT-1 and MACH within transfected yeast cells. Briefly, MORT-1 and MACHβ1 and their deletion constructs, as well as MACHα1, a MACHα1 mutant in which the catalytic cysteine Cys360 is replaced by Ser (MACHα1 (C360S)) and the intracellular domain of human FAS-R (Fas-IC), were expressed within transfected SFY526 yeast in Gal4 DNA binding domain and activation domain constructs (pGBT9 and pGAD-GH). Their interaction was assessed by a β-galactosidase expression filter assay as described in Boldin et al (1995b). The results are presented in terms of the time required for the development of strong color. […] None of the inserts examined interacted with a number of tested negative controls, including the intracellular domains of human p55 TNF receptor, p75 TNF receptor and CD40, and lamin, cyclin D and ‘empty’ Gal4 vectors. MACHβ1 was cloned by two hybrid screening of a Gal4 AD-tagged human B cell library (Durfee et al, 1993) for proteins that bind to MORT-1, using the HF7c Yeast reporter strain. Except where otherwise indicated, all experimental procedures for the findings presented are as described above (see also Boldin et al, 1995). […] MACHβ1 also self-associated in the transfected yeast. […] Expression of MACHβ1 molecules in mammalian cells yielded a 34 kDa protein that bound to MORT-1 molecules co-expressed with it. […]

FAS-R = target: T2, FAS-R (Homo sapiens, UniProt P25445); assay: Two-hybrid β-galactosidase filter assay (FIG. 5), binding to FAS-R; conditions: two hybrid test
T2 construct: the FAS-IC extends-from amino acid residues 175-319 of the intact FAS-R; expressed in transfected cells; host or cells: SFY526 yeast
T2 sequence (P25445 191-335): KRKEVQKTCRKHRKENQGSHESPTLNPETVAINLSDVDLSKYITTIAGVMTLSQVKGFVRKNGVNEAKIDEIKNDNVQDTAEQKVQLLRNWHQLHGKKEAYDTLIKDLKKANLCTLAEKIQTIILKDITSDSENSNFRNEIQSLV
Experimental: The yeast two-hybrid test was further applied to evaluate the specificity of binding of MACH to MORT-1, in particular, to define the region in MORT-1 to which MACH binds, as well as to determine which of the MACH ORFs interacts with MORT-1, the procedures being as set forth herein above in Examples 1 and 2. Briefly, various MORT-1 and MACH constructs were prepared for testing the interaction of the proteins encoded by the Gal4 DNA-binding domain and activation domain constructs within transfected SFY526 yeast cells as assessed by the β-galactosidase expression filter assay. The DNA-binding domain constructs were prepared in pGBT9 vectors and the activation domain constructs were prepared in pGAD-GM vectors. […] In the assay, the development of color was determined, where the greater the color development, the greater the interaction between the constructs encoded by the DNA-binding domain and activation domain; Color development was depicted by symbols, where “+++” and “+” indicate the development of a strong color within 30 and 90 min. of the assay, respectively, and “−−−” indicates the lack of development of color within 24 hrs. of the assay. […]
In FIG. 5, there is shown the results of the interaction of MORT-1 and MACH within transfected yeast cells. […] Their interaction was assessed by a β-galactosidase expression filter assay as described in Boldin et al (1995b). […]

B1: MACHα1 (C360S): MACHα1 mutant in which the catalytic cysteine Cys360 is replaced by Ser (protein)
chain: MDFSRNLYDIGEQLDSEDLASLKFLSLDYIPQRKQEPIKDALMLFQRLQEKRMLEESNLSFLKELLFRINRLDLLITYLNTRKEEMERELQTPGRAQISAYRVMLYQISEEVSRSELRSFKFLLQEEISKCKLDDDMNLLDIFIEMEKRVILGEGKLDILKRVCAQINKSLLKIINDYEEFSKERSSSLEGSPDEFSNGEELCGVMTISDSPREQDSESQTLDKVYQMKSKPRGYCLIINNHNFAKAREKVPKLHSIRDRNGTHLDAGALTTTFEELHFEIKPHDDCTVEQIYEILKIYQLMDHSNMDCFICCILSHGDKGIIYGTDGQEAPIYELTSQFTGLKCPSLAGKPKVFFIQASQGDNYQKGIPVETDSEEQPYLEMDLSSPQTRYIPDEADFLLGMATVNNCVSYRNPAEGTWYIQSLCQSLRERCPRGDDILTILTEVNYEVSNKDDKKNMGKQMPQPTFTLRKKLVFPSD
B1 was tested, and the “binding to MACHα1 (C360S) in transfected yeast” value (MACHα1 (C360S)) was “bound”.

B2: MACHβ1: MACH isoform, cDNA SEQ ID NO: 4, amino acid SEQ ID NO: 5; lacks the CED3/ICE homology region (protein)
chain: MDFSRNLYDIGEQLDSEDLASLKFLSLDYIPQRKQEPIKDALMLFQRLQEKRMLEESNLSFLKELLFRINRLDLLITYLNTRKEEMERELQTPGRAQISAYRVMLYQISEEVSRSELRSFKFLLQEEISKCKLDDDMNLLDIFIEMEKRVILGEGKLDILKRVCAQINKSLLKIINDYEEFSKERSSSLEGSPDEFSNDFGQSLPNEKQTSGILSDHQQSQFCKSTGESAQTSQH
For B2, the “binding to FAS-R in transfected yeast” value (FAS-R) was “unable to bind”.
